Reference: patent publication US7892803B2, “Gene and uses therefor to modify pasture qualities of crops” (Commonwealth Scientific and Industrial Research Organisation, priority 2001, dated 2011)

B1: LAR317: Truncated recombinant LAR, amino acids 1-317 of SEQ ID NO: 29, with N-terminal RGS-6×His epitope, expressed in E. coli (protein, listed as Desmodium uncinatum)
chain: MTVSGAIPSMTKNRTLVVGGTGFIGQFITKASLGFGYPTFLLVRPGPVSPSKAVIIKTFQDKGAKVIYGVINDKECMEKILKEYEIDVVISLVGGARLLDQLTLLEAIKSVKTIKRFLPSEFGHDVDRTDPVEPGLTMYKEKRLVRRAVEEYGIPFTNICCNSIASWPYYDNCHPSQVPPPMDQFQIYGDGNTKAYFIDGNDIGKFTMKTIDDIRTLNKNVHFRPSSNCYSINELASLWEKKIGRTLPRFTVTADKLLAHAAENIIPESIVSSFTHDIFINGCQVNFSIDEHSDVEIDTLYPDEKFRSLDDCYEDFV
modifications: N-terminal RGS-6xHis tag
B2: LAR382: Full length recombinant D. uncinatum LAR polypeptide (SEQ ID NO: 29) with N-terminal T7 Tag, expressed in E. coli from pET3a (protein, listed as Desmodium uncinatum)
chain: MTVSGAIPSMTKNRTLVVGGTGFIGQFITKASLGFGYPTFLLVRPGPVSPSKAVIIKTFQDKGAKVIYGVINDKECMEKILKEYEIDVVISLVGGARLLDQLTLLEAIKSVKTIKRFLPSEFGHDVDRTDPVEPGLTMYKEKRLVRRAVEEYGIPFTNICCNSIASWPYYDNCHPSQVPPPMDQFQIYGDGNTKAYFIDGNDIGKFTMKTIDDIRTLNKNVHFRPSSNCYSINELASLWEKKIGRTLPRFTVTADKLLAHAAENIIPESIVSSFTHDIFINGCQVNFSIDEHSDVEIDTLYPDEKFRSLDDCYEDFVPMVHDKIHAGKSGEIKIKDGKPLVQTGTIEEINKDIKTLVETQPNEEIKKDMKALVEAVPISAMG
modifications: N-terminal T7 tag
B3: LAR: Leucoanthocyanidin reductase enzyme partially purified 2,360 fold from young leaves of Desmodium uncinatum (protein, listed as Desmodium uncinatum)
chain: B2 chain

How the values were obtained:
[1] = LAR enzyme activity of recombinant LAR protein in E. coli extracts (radio-HPLC); type: biochemical; settings: bacterial protein extracts after induction, HPLC system IIa
Procedure: LAR was assayed essentially as described by Tanner and Kristiansen (1993). The standard assay contained in total volume of 100 μl assay buffer containing 10 mg glycerol, 10 μmol NaPi, 0.5 μmol NADPH, 0.1 μmol DDT, all adjusted to pH7 with NaOH, 0.25 nmol [^3H]-3,4-cis-leucocyanidin (1 μCi), or other suitable flavan-3,4-diol substrate (Table 2), and enzyme extract. The assay was initiated by the addition of an appropriate amount of enzyme extract and incubated at 30° C. for 30 min. The incubation was terminated by extraction with 0.2 ml ethyl acetate containing 10 nmol of unlabelled catechin as carrier. The ethyl acetate extracts were dried under a stream of nitrogen at room temperature. The residue was dissolved in 100 μl of water and analyzed by radio-HPLC using system II (see above and Table 2). In each radio-chromatogram of the assay mixtures derived from the leaf extracts referred to herein, only the substrate, 3-4-cis-leucocyanidin, or the product, catechin were detected.
The complete amino acid coding sequence of the LAR cDNA was introduced into the BamHI site of the pET3a expression vector to express the LAR382 polypeptide containing the 14 amino acid N-terminal T7 Tag. The resultant expression construct was then introduced into E. coli strain Rosetta(DE3) RARE/pLysS.
A truncated form of LAR comprising amino acids 1-317 was also introduced into the BamHI and HindIII sites of pQE30 expression vector to express the LAR317 polypeptide containing the 10 amino acid N-terminal RGS-6×His epitope. The resultant expression construct was then introduced into E. coli strain XL1 Blue.
Expression of the full length recombinant LAR382 protein, or the truncated form LAR317, was induced as described in the preceding Example. Bacterial protein extracts were assayed for LAR enzyme activity, essentially as described in Example 1.

[2] = Storage stability of partially purified LAR enzyme preparation; type: physicochemical; settings: 2,360 fold purified concentrate mixed with equal volume of glycerol, stored at −20 C
Procedure: Fractions with LAR activity were combined and then concentrated to a final volume of 1 ml by applying nitrogen over a YM10 membrane (Amicon). The concentrate was mixed with an equal volume of glycerol and stored at −20 C.
The final yield of enzyme activity was 8.7% and purification was 2,360 fold.

Molecule	LAR enzyme activity (reduction of leucocyanidin to catechin) [1]	LAR enzyme activity (reduction of leucocyanidin to catechin) ([1]; listed as pET LAR317)	LAR enzyme activity (reduction of leucocyanidin to catechin) ([1]; listed as pET LAR382)	stability of LAR enzyme activity on storage [2]
B1	catalysed the reduction of [4-^3H]-2,3-trans-3,4-cis-leucocyanidin	LAR activity sufficient to convert all of the leucocyanidin substrate into catechin		
B2	catalysed the reduction of [4-^3H]-2,3-trans-3,4-cis-leucocyanidin		LAR activity sufficient to convert all of the leucocyanidin substrate into catechin	
B3				stable for up to one year
